Sequences and labels used below:
B1: SAM and SH3 domain-containing protein 1, residues 630 to 700; numbered along this chain, O94885 (parent)
chain: GRPPQPKSVEDLLDRINLKEHMPTFLFNGYEDLDTFKLLEEEDLDELNIRDPEHRAVLLTAVELLQEYDSN

± gives the uncertainty stated by the source.

The variants in this series derive from B1. In words: abundance fitness (aPCA) (normalised: wild type 0, dead -1); higher = more abundant; growth selection in yeast, the domain comes from the species named. The conditions noted are these: Homo sapiens.
Take GRPPQPKSVEDLLDRINLKEHMPTFLFNGYEDLDTFKLLEEEDLDERNIRDPEHRAVLLTAVELLQEYDSN: the abundance fitness was -0.922 ± 0.055.

As to GRPPQPKSVEDLLDRINLKEHMPTFLFNGYEALDTFKLLEEEDLDELNIRDPEHRAVLLTAVELLQEYDSN, the abundance fitness is -0.579 ± 0.056. As for GRPPQPKSVEDLLDRINLKEHMPTFLFNGYEILDTFKLLEEEDLDELNIRDPEHRAVLLTAVELLQEYDSN, the abundance fitness was -0.568 ± 0.079. As to GRPPQPKSVEDLLDRINLKEHNPTFLFNGYEDLDTFKLLEEEDLDELNIRDPEHRAVLLTAVELLQEYDSN, the abundance fitness is -0.503 ± 0.056. With GRPPQPVSVEDLLDRINLKEHMPTFLFNGYEDLDTFKLLEEEDLDELNIRDPEHRAVLLTAVELLQEYDSN, the abundance fitness was -0.126 ± 0.043. In the case of GRPPQPKSVEDLRDRINLKEHMPTFLFNGYEDLDTFKLLEEEDLDELNIRDPEHRAVLLTAVELLQEYDSN, the abundance fitness was -0.803 ± 0.06. Regarding GRPPQPKSVEDLLDRINLKEHMPHFLFNGYEDLDTFKLLEEEDLDELNIRDPEHRAVLLTAVELLQEYDSN, the abundance fitness is -0.698 ± 0.064. Consider GRPPQPKSVEDLLDRINLKEHMPDFLFNGYEDLDTFKLLEEEDLDELNIRDPEHRAVLLTAVELLQEYDSN, for which the abundance fitness was -0.622 ± 0.064. On to GRPPQPKSVEDLLDRINLKEHMPTFLFNGYEDLDTIKLLEEEDLDELNIRDPEHRAVLLTAVELLQEYDSN, for which the abundance fitness was -0.531 ± 0.069. In the case of GRPPQPKSVFDLLDRINLKEHMPTFLFNGYEDLDTFKLLEEEDLDELNIRDPEHRAVLLTAVELLQEYDSN, the abundance fitness was -0.443 ± 0.054.

On to GRPPQPKSVEDLLDRINLKEHMPTFLFNGYEDLDTFKLLDEEDLDELNIRDPEHRAVLLTAVELLQEYDSN, for which the abundance fitness is 0.011 ± 0.057. On to GRPPQPKSVEDLLDRINLKEHMPTFLFNGYEDLRTFKLLEEEDLDELNIRDPEHRAVLLTAVELLQEYDSN, for which the abundance fitness is -0.465 ± 0.045. For the variant GRPPQPKSVEDLLDRINLKEHMPTFLFNGYEDLITFKLLEEEDLDELNIRDPEHRAVLLTAVELLQEYDSN, the abundance fitness is -0.793 ± 0.067. The value for GRPPQPKSVEDLLDRINLKEHMPTFLFNGYEDLDTFKLLEEEDLDELNIRDPEHRCVLLTAVELLQEYDSN was -0.272 ± 0.046; that for GRPPQPKSVEDLLDRINLKEHMPTFLDNGYEDLDTFKLLEEEDLDELNIRDPEHRAVLLTAVELLQEYDSN was 0.446 ± 0.046. As to GRPPKPKSVEDLLDRINLKEHMPTFLFNGYEDLDTFKLLEEEDLDELNIRDPEHRAVLLTAVELLQEYDSN, the abundance fitness was -0.258 ± 0.061. For the variant GRPPPPKSVEDLLDRINLKEHMPTFLFNGYEDLDTFKLLEEEDLDELNIRDPEHRAVLLTAVELLQEYDSN, the abundance fitness was -0.276 ± 0.055. In the case of GRPPDPKSVEDLLDRINLKEHMPTFLFNGYEDLDTFKLLEEEDLDELNIRDPEHRAVLLTAVELLQEYDSN, the abundance fitness was -0.783 ± 0.12. As for GYPPQPKSVEDLLDRINLKEHMPTFLFNGYEDLDTFKLLEEEDLDELNIRDPEHRAVLLTAVELLQEYDSN, the abundance fitness is -0.317 ± 0.069.

Turning to GRPPQPKSVEDLLDRINLKEKMPTFLFNGYEDLDTFKLLEEEDLDELNIRDPEHRAVLLTAVELLQEYDSN, the abundance fitness is -0.712 ± 0.075. Take GRPPQDKSVEDLLDRINLKEHMPTFLFNGYEDLDTFKLLEEEDLDELNIRDPEHRAVLLTAVELLQEYDSN: the abundance fitness was -0.158 ± 0.058. Take GRPPQPKSVEDLLDRINLKEHMPTFLFNGYEDLDTFKLLEEEDLDELNIRDPEHRAVLLTAVELLQEMDSN: the abundance fitness is 0.025 ± 0.053. For the variant GRPPQPKSVEDLLDRINLKEHMPTFLFNGYEDLDTFKLLEEEDLDELNIRRPEHRAVLLTAVELLQEYDSN, the abundance fitness is -0.611 ± 0.046. On to GRPPQPKSVEDLLDRINLKEHMPTFLFNGYEDLDTFKLLEEEDLDELNIRDPEHDAVLLTAVELLQEYDSN, for which the abundance fitness was -0.77 ± 0.085. Next, GRPPQPKSVEDLLDRINLKEHMPTFLFNGYEDLDTFKLLEEEDLDELNIRDPEHRAVLLTAVELLQEYDSC: -0.009 ± 0.12; GRPPQPKSVEDLLDRINLKEHMPTFLFNGYKDLDTFKLLEEEDLDELNIRDPEHRAVLLTAVELLQEYDSN: 0.124 ± 0.045; GRPPQPKSVEDLLDRINLKEHMDTFLFNGYEDLDTFKLLEEEDLDELNIRDPEHRAVLLTAVELLQEYDSN: 0.199 ± 0.047. The value for GRPPQPKSVEDLLDRINLKEHMPTFLFNGYEDLDTFKLLEEEDLDELNIRDPSHRAVLLTAVELLQEYDSN was -0.126 ± 0.037; that for GRPPQPKSVEDLLDRINLKEHMPTFLFNGYEDLDTFKLLEEEDLDELNIRDPEHRAVLLTAVELLQEYVSN was -0.971 ± 0.086; that for GRPPQPKSVEDLLDRINLKEHMPTFLFNGYEDLDTFKLLEEEDLDELNIRDPEHRAVLLTAVELLQEYWSN was -0.752 ± 0.093. As for GRPPQPKSVEDLLDRINLKEHMPTFLFNGYEDLDTFKLLEEEDLDELNIRDPEHRAVLLTWVELLQEYDSN, the abundance fitness was -0.287 ± 0.064. Consider GRPPQPKSVEDLLDRINLKEHMPTFLFNGYEDLDTFKLLEEEDLDELNIRDPEHRAVLLTDVELLQEYDSN, for which the abundance fitness is -0.787 ± 0.099.

With GRPPQPKSVEDLLDRINLKEHMPTFLFNGYEDLDTFKLLEEEVLDELNIRDPEHRAVLLTAVELLQEYDSN, the abundance fitness was -0.456 ± 0.047. In the case of GRPPQPKSVEDLLDRINLKEHMPTFLFNGYEDLDTFKLLEEEDLDELNIRDPEHRAVLYTAVELLQEYDSN, the abundance fitness was -0.823 ± 0.072.

With GRPPQPKSVEDLLDRINLKEHMPTFLFNGYEDLDTFKLLEEEDLDELNIRDPEHRAVLHTAVELLQEYDSN, the abundance fitness was -0.564 ± 0.058. Next, GRPPQPKSVEDLLDRINLKEHMPTFLFSGYEDLDTFKLLEEEDLDELNIRDPEHRAVLLTAVELLQEYDSN: -0.395 ± 0.039. Next, GRPPQPKSVEDLLDRINLKEHMPTFLFNGYEDLDTFKLREEEDLDELNIRDPEHRAVLLTAVELLQEYDSN: -0.861 ± 0.059. Consider GRPPQPKSVEDLLGRINLKEHMPTFLFNGYEDLDTFKLLEEEDLDELNIRDPEHRAVLLTAVELLQEYDSN, for which the abundance fitness is -0.218 ± 0.055.

The values are drawn from the Human Domainome abundance scans (Beltran et al. 2025).
